Source: publication PMC6636998

Tests used:
[1] = target: pyruvate kinase M2 (PKM2), wild type, purified recombinant human (human) (UniProt P14618); assay: native MS; nano-ESI, 10 µM PKM2 in 200 mM ammonium acetate pH 6.8, no FBP added (PKM2^apo*, <25% co-purified FBP); also with 300 µM Phe alone (fewer tetramers, more dimers)
[2] = target: pyruvate kinase M2 (PKM2), wild type, purified recombinant human (human) (UniProt P14618); assay: native MS; time course over 20 min, 10 µM PKM2 with 5 µM FBP and 400 µM Phe; ratio of the tetramer 32+ peak to the dimer 22+ peak, two-state sigmoidal model; dimers and monomers to tetramer

Sequence of pyruvate kinase M2 (PKM2), wild type, purified recombinant human, P14618-1 1-531 (enzyme; other documents disagree on this pair) (P14618 whole entry): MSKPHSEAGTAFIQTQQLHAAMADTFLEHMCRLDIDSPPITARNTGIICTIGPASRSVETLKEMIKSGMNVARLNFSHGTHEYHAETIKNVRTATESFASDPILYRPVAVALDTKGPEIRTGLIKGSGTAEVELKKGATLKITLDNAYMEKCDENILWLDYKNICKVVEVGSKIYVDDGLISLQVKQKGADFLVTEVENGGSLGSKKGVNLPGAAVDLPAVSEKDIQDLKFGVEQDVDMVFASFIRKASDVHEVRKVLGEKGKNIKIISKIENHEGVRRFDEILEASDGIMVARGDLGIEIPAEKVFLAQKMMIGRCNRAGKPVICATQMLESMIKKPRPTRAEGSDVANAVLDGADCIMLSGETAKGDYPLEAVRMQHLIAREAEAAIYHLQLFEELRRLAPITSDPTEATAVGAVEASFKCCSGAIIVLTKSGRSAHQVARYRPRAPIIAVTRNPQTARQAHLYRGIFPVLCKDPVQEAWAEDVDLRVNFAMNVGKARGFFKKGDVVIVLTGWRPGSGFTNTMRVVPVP

stoichiometry N [1]: 2
ktet (kinetics of tetramerisation with half-stoichiometric FBP and Phe) [2]: 812 s
Substance: pyruvate kinase M2 (PKM2), wild type, purified recombinant human, P14618-1 1-531 (enzyme; other documents disagree on this pair)
